T1: hICOS.mFC (human, UniProt Q9Y6W8 21-140)
T1 construct: not shown: mFc tag
T1 sequence (looked up): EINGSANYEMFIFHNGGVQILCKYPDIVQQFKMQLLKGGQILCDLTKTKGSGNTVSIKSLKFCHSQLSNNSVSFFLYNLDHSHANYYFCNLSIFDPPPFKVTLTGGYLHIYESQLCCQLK


What was measured:
[1] = molecular target: T2, human CTLA-4 on transfected cells (human, UniProt P16410 36-223); assay: FACS on human CTLA-4 expressing cells
T2 construct: whole, on cells; also called cell surface human CTLA-4; hCTLA4 transfected cells
Method: (§1) For FACS binding, engineered human CTLA-4 expressing cells were seeded at 1×10⁵ cells/well in U-bottom 96-well plates (COSTAR 3799). After centrifugation at 1500 rpm for 4 minutes at 4° C., the supernatants were moved and the serial dilutions of antibodies in 1% BSA-DPBS were added to the cells. The plates were incubated at 4° C. for 1 hour. […] The binding of the antibodies to the cells was tested by flow cytometry and the mean fluorescence intensity (MFI) was analyzed by FlowJo.

[2] = molecular target: T3, cynomolgus CTLA-4 ECD protein (in house) (Macaca fascicularis (cynomolgus monkey), UniProt G7PL88 36-161); assay: ELISA, cyno CTLA4 ECD coated at 1.0 µg/ml
T3 construct: also called immobilized cyno CTLA-4 ECD protein; cyno CTLA4 ECD protein; not shown: C-terminal tag: 6xHis or Fc
Method: (§2) After blocking with 2% BSA-PBS, serial diluted antibodies were added into each well and incubated for 1 hour at room temperature. HRP-labeled goat anti-human IgG (Bethyl A80-304P) were used as the secondary antibody and incubated for 1 hour. The color was developed by TMB substrate, and then stopped by 2N HCl. The absorbance was read at 450 nm using a Microplate Spectrophotometer (SpectraMax® M5e).
(§3) The binding of testing antibodies to […] was assessed by ELISA and FACS as the described above. […] For FACS binding, engineered Cynomolgus CTLA4 expressing cell pool was used.

[3] = molecular target: T4, human CTLA-4 ECD protein (in house) (human, UniProt P16410 36-161); assay: ELISA, human CTLA4 ECD coated at 1.0 µg/ml
T4 construct: extracellular domain; also called immobilized human CTLA-4 ECD protein; hCTLA-4; not shown: 6xHis or Fc tag
Method: as §2

[4] = molecular target: T5, cynomolgus CTLA-4 on transfected cells (Macaca fascicularis (cynomolgus monkey), UniProt G7PL88 36-223); assay: FACS on cynomolgus CTLA4 expressing cell pool
T5 construct: also called cell surface cyno CTLA-4; Cynomolgus CTLA4 expressing cell pool
Method: as §1, §3

[5] = molecular target: T4, human CTLA-4 ECD protein (in house); assay: competition ELISA, hCTLA4 ECD coated; competitor his-tagged hCD80
Method: (§4) After washing with PBST, biotin-labeled anti-His mAb (GenScript-A00613) was added and incubation 1 hour. […] The color reaction was developed by TMB substrate, and then stopped by 2N HCl. The absorbance was read at 450 nm using a Microplate Spectrophotometer (SpectraMax® M5e).

[6] = molecular target: T4, human CTLA-4 ECD protein (in house); assay: competition ELISA, hCTLA4 ECD coated; competitor his-tagged hCD86
Method: as §4

[7] = molecular target: T6, hBTLA.His (human, UniProt Q7Z6A9 31-157, limits assumed); assay: ELISA on coated BTLA.His, detected with HRP goat anti-human IgG
T6 construct: not shown: His tag
Method: (§5) After blocking with 2% BSA-PBS, 10 μg/ml and 1.0 μg/ml of testing antibodies were respectively added into the plates and incubated for 1 hour at room temperature. The secondary antibody HRP-labeled goat anti-human IgG (Bethyl A80-304P) was then added and incubated for 1 hour. Washes with PBST were performed between each step. The color reaction was developed by TMB substrate, and then stopped by 2N HCl. The absorbance was read at 450 nm using a Microplate Spectrophotometer (SpectraMax® M5e).

[8] = molecular target: T1, hICOS.mFC; assay: ELISA on coated hICOS.mFc, detected with HRP goat anti-human IgG
Method: as §5

[9] = molecular target: T4, human CTLA-4 ECD protein (in house); assay: competition FACS, biotinylated hCTLA4 ECD; competitor hCD80 on transfected cells
Method: (§6) After washing, streptavidin PE (BD Pharmingen-554061) was added to the cells and incubated at 4° C. for 1 hour. The fluorescence values were measured by flow cytometry and analyzed by FlowJo.

[10] = molecular target: T4, human CTLA-4 ECD protein (in house); assay: competition FACS, biotinylated hCTLA4 ECD; competitor hCD86 on transfected cells
Method: as §6

[11] = molecular target: T2, human CTLA-4 on transfected cells; assay: FACS on CTLA-4 transfected cells; antibody incubated in human serum at 37 C for 1 day
Method: (§7) Testing antibodies were incubated in freshly isolated human serum (serum content >90%) at 37° C. On indicated time points, an aliquot of serum treated sample was removed from the incubator and snap frozen in liquid nitrogen, and then stored at −80° C. until test. The samples were quickly thawed immediately prior to the stability test. Serial dilutions of antibodies were incubated with CTLA-4 transfected cells for 1 hour at 4° C. After washing, FITC conjugated goat anti-human IgG antibody (Jackson ImmunoResearch) was added to the cells and incubated at 4° C. for 1 hour. Finally, the cells were washed and resuspended in 1% BSA-PBS. The MFI fluorescence values were measured by flow cytometry and analyzed by FlowJo.

[12] = molecular target: T2, human CTLA-4 on transfected cells; assay: FACS on CTLA-4 transfected cells; antibody incubated in human serum at 37 C for 0 days
Method: as §7

[13] = molecular target: T2, human CTLA-4 on transfected cells; assay: FACS on CTLA-4 transfected cells; antibody incubated in human serum at 37 C for 4 days
Method: as §7

[14] = molecular target: T2, human CTLA-4 on transfected cells; assay: FACS on CTLA-4 transfected cells; antibody incubated in human serum at 37 C for 7 days
Method: as §7

[15] = molecular target: T2, human CTLA-4 on transfected cells; assay: FACS on CTLA-4 transfected cells; antibody incubated in human serum at 37 C for 14 days
Method: as §7

[16] = molecular target: T7, hPD-1.mFc (human, UniProt Q15116 25-170); assay: ELISA on coated hPD1 (sheet prints 'hPD1.His', text says hPD-1.mFc), detected with HRP goat anti-human IgG
T7 construct: not shown: mFc tag
Method: as §5

[17] = molecular target: T8, hCD28.mFc (human, UniProt P10747 19-152); assay: ELISA on coated hCD28 (sheet prints 'hCD28.His', text says hCD28.mFc), detected with HRP goat anti-human IgG
T8 construct: not shown: mFc tag
Method: as §5

[18] = molecular target: T4, human CTLA-4 ECD protein (in house); assay: competition (epitope binning) ELISA on coated human CTLA4 protein; competitor 0.02 ug/ml W316-BMK1-Biotin, detected with streptavidin-HRP
Method: After washing, HRP-conjugated streptavidin were added and incubated for 1 hour. The color was developed by dispensing TMB substrate, and then stopped by 2N HCl. The absorbance was read at 450 nm using a Microplate Spectrophotometer (SpectraMax® M5e).

[19] = molecular target: T2, human CTLA-4 on transfected cells; assay: cell-based or functional assay
[20] = molecular target: T5, cynomolgus CTLA-4 on transfected cells; assay: FACS affinity on cyno CTLA-4 transfected cells (cPro1), quantitative beads
Method: (§8) Human CTLA-4 or cyno CTLA-4 transfected cells were plated into 96-well U-bottom plates (BD) at a density of 5×10⁴ cells/well. Testing antibodies were 1:2-fold serially diluted in 1% BSA-PBS and incubated with the cells at 4° C. for 1 hr. After centrifugation at 1500 rpm for 4 min, the supernatant was discarded. The secondary antibody FITC conjugated goat anti-human IgG Fc (Jackson Immunoresearch Lab) was added and incubated at 4° C. in the dark for 30 min. The cells were then washed once and re-suspended in 1% BSA-PBS for the analysis by flow cytometry (BD CantoII). Fluorescence intensity was converted to bound molecules/cell based on the quantitative beads (Quantum™ MESF Kits, Bangs Laboratories). KD was calculated using Graphpad Prism5.

[21] = molecular target: T2, human CTLA-4 on transfected cells; assay: FACS affinity on human CTLA-4 transfected cells (hPro1), quantitative beads
Method: as §8

[22] = molecular target: T9, human CTLA-4 ECD, His-tagged (human, UniProt P16410 36-161); assay: SPR (Biacore T200), antibody captured by anti-human IgG Fc, CTLA-4 ECD his as analyte
T9 construct: extracellular domain; also called W316.hprol.ECD.his; hCTLA-4.His; not shown: hexa-histidine (6xHis) tag
Method: The experiment was to measure the on-rate constant (ka) and off-rate constant (kd) of the antibodies to CTLA-4 ECD based on SPR technology. The affinity constant (KD) is thus consequently determined. Biacore T200, Series S Sensor Chip CM5, Amine Coupling Kit, and 10XHBS-EP were from GE Healthcare. […] In immobilization step, the activation buffer was prepared by mixing 400 mM EDC and 100 mM NHS immediately prior to injection. The CM5 sensor chip was activated for 420 s with the activation buffer. 30 μg/mL of goat anti-human IgG Fc antibody in 10 mM NaAc (pH 4.5) was then injected to Fc1-Fc4 channels for 200 s at a flow rate of 5 μL/min. The chip was deactivated by 1 M ethanolamine-HCl (GE). Then the antibodies were captured on the chip. Briefly, 4 μg/mL antibodies in running buffer (HBS-EP+) was injected individually to Fc3 channel for 30 s at a flow rate of 10 μL/min. […] Regeneration buffer (10 mM Glycine pH 1.5) was injected at 10 μL/min for 30 s following every dissociation phase.

T5 sequence (G7PL88 entry or part of it limits assumed): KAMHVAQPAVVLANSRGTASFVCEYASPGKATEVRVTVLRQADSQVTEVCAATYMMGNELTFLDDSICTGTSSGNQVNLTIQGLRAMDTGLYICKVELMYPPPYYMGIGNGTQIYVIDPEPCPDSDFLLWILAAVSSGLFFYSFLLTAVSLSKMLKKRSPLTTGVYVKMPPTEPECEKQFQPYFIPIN
T4 sequence (P16410 36-161): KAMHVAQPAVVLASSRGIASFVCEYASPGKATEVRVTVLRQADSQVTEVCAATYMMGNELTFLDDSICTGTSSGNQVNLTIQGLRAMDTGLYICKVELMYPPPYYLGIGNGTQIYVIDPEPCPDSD
T9 sequence (P16410 36-161): as above
T2 sequence (P16410 36-223): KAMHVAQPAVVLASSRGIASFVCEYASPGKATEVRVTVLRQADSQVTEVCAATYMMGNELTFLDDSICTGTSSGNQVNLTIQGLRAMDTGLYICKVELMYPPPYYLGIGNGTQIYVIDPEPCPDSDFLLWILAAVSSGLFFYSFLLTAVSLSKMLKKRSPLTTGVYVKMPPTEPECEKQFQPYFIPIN
T7 sequence (Q15116 25-170): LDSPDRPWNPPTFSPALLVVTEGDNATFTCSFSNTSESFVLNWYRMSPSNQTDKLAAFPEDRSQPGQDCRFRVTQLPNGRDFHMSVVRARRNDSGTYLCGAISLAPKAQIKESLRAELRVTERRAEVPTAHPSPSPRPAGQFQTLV
T3 sequence (G7PL88 entry or part of it limits assumed): as the sequence (P16410 36-161) above, with S14N, I18T, L106M counted along it

| EC50 [1] [nM] | EC50 [2] [nM] | EC50 [3] [nM] | EC50 [4] [nM] | IC50 [5] [nM] | IC50 [6] [nM] | binding result [7] | binding result [8] | IC50 [9] [nM] | IC50 [10] [nM] | EC50 [11] [nM] | EC50 [12] [nM] | EC50 [13] [nM] | EC50 [14] [nM] | EC50 [15] [nM] | binding result [16] | binding result [17] | IC50 (read off the curve) [18] [nM] | Binder | other results |
| --- | --- | --- | --- | --- | --- | --- | --- | --- | --- | --- | --- | --- | --- | --- | --- | --- | --- | --- | --- |
| 0.325 | 0.0732 | 0.0983 | 1.5 | 1.1 | 2.06 | no binding (tested: 10 ug/ml) | no binding (tested: 10 ug/ml) | 0.109 | 0.22 | 0.221 | 0.214 | 0.237 | 0.223 | 0.244 | no binding (tested: 10 ug/ml) | no binding (tested: 10 ug/ml) | ~3 | W3166-z13 (Fc fusion, Tested as VHH linked to human IgG1 Fc; also called humanized VHH antibody W3166-z13; W3166-z13 VHH fused with Fc of human IgG1; not shown: human IgG1 Fc region) QVQLVESGGGLVQPGGSLRLSCAASGRTFSSYAMGWFRQAPGMEREFVASIRWSDQTTYVPNSVKGRFTISRDNSKNTLYLQMNSLRPEDTAVYYCATGPTRLSFYSGNYRTYDSWGQGTLVTVSS | – |
| 0.297 | 0.0401 | 0.0512 | 1.16 | 0.908 | 1.67 | no binding (tested: 10 ug/ml) | no binding (tested: 10 ug/ml) | 0.0786 | 0.163 | 0.195 | 0.19 | 0.193 | 0.221 | 0.199 | no binding (tested: 10 ug/ml) | no binding (tested: 10 ug/ml) | ~3 | W3166-z17 (Fc fusion, Tested as VHH linked to human IgG1 Fc; also called humanized VHH antibody W3166-z17; W3166-z17 VHH fused with Fc of human IgG1; not shown: human IgG1 Fc region) QVQLVESGGGVVQPGGSLRLSCAASGRTFSSYAMGWFRQAPGKEREFVASIRWSDQTTYVPNSVKGRFTISRDNSKNTLYLQMNSLRPEDTAVYYCATGPTRLSFYSGNYRTYDSWGQGTLVTVSS | EC50 in inducing ADCC effect [19]: 0.247 nM; Kd [20]: 0.14 nM; Kd [21]: 0.049 nM; Kd [22]: 3.13 nM; koff [22]: 0.0015 s⁻¹; kon [22]: 481000 M⁻¹ s⁻¹ |

From patent US20230167177A1 (WUXI BIOLOGICS IRELAND, published 2023)
